Test results reported in patent US20250101091A1.

Legend:
[1] = biological target: Cleaved cynomolgus monkey epiregulin (cynomolgus monkey); assay: cell-based or functional assay
[2] = biological target: Cleaved human epiregulin (human) (UniProt O14944); assay: cell-based or functional assay
[3] = biological target: Cleaved rabbit epiregulin (rabbit); assay: cell-based or functional assay
[4] = biological target: Cleaved rat epiregulin (rat) (UniProt Q9Z0L5); assay: cell-based or functional assay
[5] = biological target: Cleaved human epiregulin (human) (UniProt O14944); assay: ELISA: biotinylated ligand (20 nM) captured on neutravidin plate, antibody titrated 1:3, anti-human kappa-AP detection, OD405 [panel B]
TGFα (human) = TGFα (human) (UniProt P01135); assay: as above

LY3016859 (antibody) gave an IC50, neutralization of epiregulin induced luciferase reporter activity in C166-AP1-Luciferase cells [1] of 8.6 nM, an IC50, neutralization of epiregulin induced luciferase reporter activity in C166-AP1-Luciferase cells [2] of 25.9 nM and an IC50, neutralization of human epiregulin induced phospho-ERK induction in TGW cells [2] of 14.6 nM. For the same substance, the IC50, neutralization of epiregulin induced luciferase reporter activity in C166-AP1-Luciferase cells [3] was 11 nM, the IC50, neutralization of epiregulin induced luciferase reporter activity in C166-AP1-Luciferase cells [4] was 720 nM and the EC50 (read off the curve) [5] was 0.03 µg/mL. For the same substance, the EC50 (read off the curve) (TGFα (human)) was 0.02 µg/mL.
